Experimental data reported in article PMC9723642.

Assays:
Experiment in all cases: EMSA
Conditions in all cases: EMSA: 10 mM Tris-HCl pH 7.5, 1 mM EDTA, 100 mM KCl, 0.1 mM DTT, 5% glycerol, 0.01 mg/mL BSA, 20 nM RNA, room temperature, 1 h; pull-down: RNA folded in 100 mM …
[1] = test system: recombinant NCL (Homo sapiens)
[2] = test system: NCL* (PRMT1-methylated recombinant NCL) (Homo sapiens)
[3] = test system: RGG peptide (Homo sapiens)
[4] = test system: RGG* methylated peptide (Homo sapiens)

## EBNA1
[1]
  Kd: 306 nM
[2]
  Kd: 202 nM
[3]
  Kd: 0.154 nM
[4]
  Kd: 0.107 nM
